The results in this text go back to paper PMC5087439, “One Step Assembly of Thin Films of Carbon Nanotubes on Screen Printed Interface for Electrochemical Aptasensing of Breast Cancer Biomarker”.

This data set concerns the target MUC1 (mucine) (UniProt P15941 24-1097). Nature of the data set: electrochemical impedance spectroscopy (aptamer immobilized on electrode); 2 mM [Fe(CN)6]4-/3- redox probe; 1 mM Mg2+; observed (apparent) Kd, stated as about 0.1 U/mL; Binding buffer pH 7.4: 1 mM MgCl2, 140 mM NaCl, 2.7 mM KCl, 0.1 mM Na2HPO4, 1.8 mM KH2PO4; 45 min incubation; temperature not stated.

Sequence of MUC1 (mucine) (P15941 24-1097): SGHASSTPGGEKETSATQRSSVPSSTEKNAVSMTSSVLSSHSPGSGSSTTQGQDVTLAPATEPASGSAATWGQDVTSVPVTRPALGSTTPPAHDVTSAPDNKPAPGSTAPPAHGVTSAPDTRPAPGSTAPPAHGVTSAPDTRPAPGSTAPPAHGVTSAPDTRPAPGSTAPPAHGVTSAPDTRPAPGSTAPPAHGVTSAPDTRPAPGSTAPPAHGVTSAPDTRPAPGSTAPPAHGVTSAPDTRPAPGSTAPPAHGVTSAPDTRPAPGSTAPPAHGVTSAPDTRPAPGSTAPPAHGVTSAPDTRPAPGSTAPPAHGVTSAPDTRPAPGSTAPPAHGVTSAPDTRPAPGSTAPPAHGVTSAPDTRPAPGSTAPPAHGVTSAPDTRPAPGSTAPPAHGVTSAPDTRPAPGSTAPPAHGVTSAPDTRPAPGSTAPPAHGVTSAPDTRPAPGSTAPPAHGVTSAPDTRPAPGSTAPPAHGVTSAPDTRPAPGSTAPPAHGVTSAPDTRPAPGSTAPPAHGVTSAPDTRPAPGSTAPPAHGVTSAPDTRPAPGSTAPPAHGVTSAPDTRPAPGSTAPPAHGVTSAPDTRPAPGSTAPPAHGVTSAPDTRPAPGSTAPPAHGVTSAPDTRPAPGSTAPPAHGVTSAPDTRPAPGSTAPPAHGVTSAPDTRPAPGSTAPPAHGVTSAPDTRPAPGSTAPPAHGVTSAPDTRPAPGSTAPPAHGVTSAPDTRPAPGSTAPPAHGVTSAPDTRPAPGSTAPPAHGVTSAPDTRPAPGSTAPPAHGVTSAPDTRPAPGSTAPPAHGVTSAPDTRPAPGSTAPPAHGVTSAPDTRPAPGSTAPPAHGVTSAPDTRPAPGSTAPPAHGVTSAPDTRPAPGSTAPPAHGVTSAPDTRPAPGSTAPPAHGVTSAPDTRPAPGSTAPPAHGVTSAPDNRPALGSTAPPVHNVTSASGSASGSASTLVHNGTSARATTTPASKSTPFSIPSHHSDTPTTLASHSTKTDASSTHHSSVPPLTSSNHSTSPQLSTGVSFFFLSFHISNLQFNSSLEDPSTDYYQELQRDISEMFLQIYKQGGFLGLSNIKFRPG

In the case of GCAGTTGATCCTTTGGATACCCTGG (ssDNA, 3'-NH2) [MUC1 aptamer], the Kd is 630 nM.
